Patent US20240317840A1 (Novartis, published 2024)
Numbering of substitutions follows the chain as printed. Like-named read-outs stand apart in the source and are kept apart here.

B1: NOV3837 (antibody, human IgG1, kappa, V domains shown)
VH: QVQLQESGGRLVRPGGSLRLSCAASGFIFTDYYMTWIRQAPGKGPEWIAFITSGGETTYYADSVKGRFTISRDNAKKSLFLQMYSLRADDTAVYYCVRAHFDGYQYDTRGDFTYYFDNWGLGTLVSVSS
VL: EIVMTQSPATLSVSPGERVTLSCRASQSVSSSLAWYQQKPGRAPRLLIYGASTRATGVPARFSGGGSGTDFTLTISSLQSEDFAVYYCHQYINWPPGDTFGQGTRLDIKR
notes: Full human IgG1 (kappa) expressed in CHO cells
B2: NOV3839 (antibody, human IgG1, kappa, V domains shown)
VH: B1 VH with G103I
VL: B1 VL
notes: as for B1
B3: NOV3838 (antibody, human IgG1, kappa, V domains shown)
VH: B1 VH with G103L
VL: B1 VL
notes: as for B1
B4: NOV3840 (antibody, human IgG1, lambda, V domains shown)
VH: EVQLLESGGGLVQPGGSRRLSCAASGFTFSYYGMNWVRQAPGKGLEWVSGITNSGSITYYADSVKGRFSISRDNSKNTLFLQMNSLRAEDTAVYYCAKVGVRSSSGMWDLDYWGQGTLVTVSS
VL: SYVLTQPPSVSVAPGQTARLSCGGNNIGSKSLQWYQQKPGQAPVLVVNDDSDRPSGIPERFSGSNSGNTATLTISRVEAGDEADYYCQVWDTSSDHVVFGGGTKLTVLG
notes: Full human IgG1 (lambda) expressed in CHO cells
B5: NOV3842 (antibody, human IgG1, lambda, V domains shown)
VH: B4 VH with S54V, S63T
VL: B4 VL with D50E
notes: as for B4
B6: NOV3841 (antibody, human IgG1, lambda, V domains shown)
VH: B4 VH with N53Q, S63T
VL: B4 VL with D50E
notes: as for B4

How the values were obtained:
[1] = biological target: HBsAg clinical mutation T126S (Hepatitis B virus); assay: sandwich ELISA, captured mutant HBsAg from culture supernatant;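 further: Anti-HBsAg antibodies tested for binding to mutant HBsAg secreted by stably transfected cell lines, supernatant incubated 1 h on antibody-coated plates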
Method: (§1) The binding of anti-HBsAg antibodies to 4 well characterized vaccine and/or HBsAg clinical mutations of HBsAg (G145R, D144A, T126S, M133L) were analyzed by sandwich ELISA. […] Supernatant collected from HBsAg cell-culture derived clinical mutation stables (G145R, D144A, T126S, M133L) was allowed to bind antibody coated plates for 1 hour.

[2] = biological target: HBsAg clinical mutation M133L (Hepatitis B virus); assay: as above
Method: as §1

[3] = biological target: HBsAg clinical mutation D144A (Hepatitis B virus); assay: as above
Method: as §1

[4] = biological target: HBsAg of HBV genotype B (AF 121245) (Hepatitis B virus); assay: sandwich ELISA, captured HBsAg from culture supernatant
Method: (§2) The binding of anti-HBsAg antibodies to the 4 major genotypes (A-D) of HBV were analyzed by sandwich ELISA.

[5] = biological target: T1, HBsAg of HBV genotype A (AY934772) (Hepatitis B virus); assay: as above
T1 construct: captured from supernatant by horse polyclonal anti-HBsAg
Method: as §2

[6] = biological target: HBsAg of HBV genotype C (DQ087960) (Hepatitis B virus); assay: as above
Method: as §2

[7] = biological target: HBsAg clinical mutation T126S (Hepatitis B virus); assay: sandwich ELISA, mutant HBsAg from cell supernatant captured on horse polyclonal anti-HBsAg, antibody titrated, absorbance 450 nm
[8] = biological target: HBsAg clinical mutation M133L (Hepatitis B virus); assay: as above
[9] = biological target: HBsAg of HBV genotype D, serotype ayw (Hepatitis B virus); assay: cell-based or functional assay
HBsAg AD serotype [10] = biological target: T2, HBsAg AD serotype (Hepatitis B virus); assay: SPR Biacore T200, HBsAg particles immobilized, antibody as analyte, 1:1 fit;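 further: Anti-HBsAg antibodies assessed for binding against both major HBsAg serotypes, AY and AD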
T2 construct: also called HBsAg serotype AD
Method: (§3) Binding affinity interaction (KD) of the anti-HBsAg antibodies with the two major serotypes of HBsAg, AY and AD, was determined utilizing surface plasma resonance (SPR) technology.

HBsAg AY serotype [11] = biological target: T3, HBsAg AY serotype (Hepatitis B virus); assay: as above
T3 construct: also called HBsAg serotype AY
Method: as §3

[12] = biological target: HBsAg clinical mutation G145R (Hepatitis B virus); assay: sandwich ELISA, captured mutant HBsAg from culture supernatant;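 further: Anti-HBsAg antibodies tested for binding to mutant HBsAg secreted by stably transfected cell lines, supernatant incubated 1 h on antibody-coated plates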
Method: as §1

[13] = biological target: HBsAg clinical mutation T126S (Hepatitis B virus); assay: sandwich ELISA, mutant HBsAg from cell supernatant captured on horse polyclonal anti-HBsAg, antibody titrated, absorbance 450 nm; remark: listed apart in the source
[14] = biological target: HBsAg clinical mutation M133L (Hepatitis B virus); assay: as above; remark: listed apart in the source
[15] = biological target: HBsAg clinical mutation T126S (Hepatitis B virus); assay: as above; remark: listed apart in the source
[16] = biological target: HBsAg clinical mutation M133L (Hepatitis B virus); assay: as above; remark: listed apart in the source
[17] = biological target: HBsAg clinical mutation T126S (Hepatitis B virus); assay: as above; remark: listed apart in the source
[18] = biological target: HBsAg clinical mutation M133L (Hepatitis B virus); assay: as above; remark: listed apart in the source
[19] = biological target: HBsAg clinical mutation D144A (Hepatitis B virus); assay: as above
[20] = biological target: HBsAg clinical mutation T126S (Hepatitis B virus); assay: as above; remark: listed apart in the source
[21] = biological target: HBsAg clinical mutation M133L (Hepatitis B virus); assay: as above; remark: listed apart in the source
[22] = biological target: HBsAg clinical mutation D144A (Hepatitis B virus); assay: as above; remark: listed apart in the source
HBsAg AD serotype [23] = biological target: T2, HBsAg AD serotype; assay: SPR epitope binning; competitor (1st, saturating Ab): CR8087
Method: (§4) Epitope binning of anti-HBsAg antibodies with the two major serotypes of HBsAg, AY and AD, was performed utilizing surface plasmon resonance (SPR) technology. […] Each pair of antibodies was tested for blocking one another's binding to their epitope on the antigen by subsequently applying one antibody as first (saturating) followed by the other as second (competing) antibody and vice versa. Saturating antibodies were applied at 500 nM for 120s. Competing antibodies utilized the same conditions but were supplemented with the first antibody at 500 nM to maintain saturation. Binding signals were corrected by subtracting the reference cell signal. Specific binding of the competing antibody in presence of the saturating antibody was calculated by subtracting a saturating antibody plus buffer reference signal. All signals were normalized to 100 RU of immobilized ligand. The specific binding signal obtained from the application as competing antibody was expressed as percentage of the binding signal obtained from the application of the same antibody as saturating (first) antibody, the signal of which was regarded 100% binding.

HBsAg AY serotype [24] = biological target: T3, HBsAg AY serotype; assay: as above
Method: as §4

HBsAg AD serotype [25] = biological target: T2, HBsAg AD serotype; assay: SPR epitope binning; competitor (1st, saturating Ab): HBC34
Method: as §4

HBsAg AY serotype [26] = biological target: T3, HBsAg AY serotype; assay: as above
Method: as §4

[27] = biological target: HBsAg clinical mutation T126S (Hepatitis B virus); assay: sandwich ELISA, mutant HBsAg from cell supernatant captured on horse polyclonal anti-HBsAg, antibody titrated, absorbance 450 nm; remark: listed apart in the source
[28] = biological target: HBsAg clinical mutation M133L (Hepatitis B virus); assay: as above; remark: listed apart in the source

Row | Binder | IC50 [1] [nM] | IC50 [2] [nM] | IC50 [3] [nM] | IC50 [4] [nM] | IC50 [5] [nM] | IC50 [6] [nM] | Virus neutralization EC50 [9] [nM] | Kd (HBsAg AD serotype [10]) [nM] | Kd (HBsAg AY serotype [11]) [nM] | IC50 [12] [nM] | binding of second antibody (HBsAg AD serotype [23]) | binding of second antibody (HBsAg AY serotype [24]) | binding of second antibody (HBsAg AD serotype [25]) | binding of second antibody (HBsAg AY serotype [26]) | further results
1 | B1 | 0.03 | 0.035 | 0.27 | 0.069 | 0.093 | 0.17 | 0.049 | 0.67 | 0.75 | – | – | – | – | – | EC50 (read off the curve) [7]: ~0.03 nM; EC50 (read off the curve) [8]: ~0.04 nM
2 | B2 | 0.088 | 0.085 | 3.6 | 0.17 | 1.6 | 0.37 | 0.09 | 0.59 | 2.4 | 8.6 | – | – | – | – | EC50 (read off the curve) [13]: ~0.1 nM; EC50 (read off the curve) [14]: ~0.1 nM
3 | B3 | 0.11 | 0.15 | 6.1 | 0.05 | 0.2 | 0.21 | 0.12 | 0.68 | 0.6 | 5.2 | – | – | – | – | EC50 (read off the curve) [15]: ~0.1 nM; EC50 (read off the curve) [16]: ~0.2 nM
4 | B4 | 0.01 | 0.013 | 0.012 | 0.022 | 0.023 | 0.016 | 0.056 | 0.45 | 0.38 | – | – | – | – | – | EC50 (read off the curve) [17]: ~0.02 nM; EC50 (read off the curve) [18]: ~0.02 nM; EC50 (read off the curve) [19]: ~0.02 nM
5 | B5 | 0.042 | 0.084 | 0.12 | 0.28 | 0.46 | 0.75 | 0.23 | 0.13 | 0.15 | > 67 | 216 % of its binding as first antibody | 118 % of its binding as first antibody | 115 % of its binding as first antibody | 103 % of its binding as first antibody | EC50 (read off the curve) [20]: ~0.05 nM; EC50 (read off the curve) [21]: ~0.05 nM; EC50 (read off the curve) [22]: ~0.1 nM
6 | B6 | 0.079 | 0.044 | 7.8 | 0.35 | 1.1 | 2 | 0.74 | 0.91 | 0.61 | > 67 | 282 % of its binding as first antibody | 129 % of its binding as first antibody | 145 % of its binding as first antibody | 107 % of its binding as first antibody | EC50 (read off the curve) [27]: ~0.07 nM; EC50 (read off the curve) [28]: ~0.06 nM
